Laboratory results: doi:10.1101/2023.01.20.524964 (bioRxiv, 2023)

Key:
Kapβ2(W373A) = target: T1, Kapβ2(W373A) (UniProt Q92973-2 1-890, W373A); experiment: ITC
T1 sequence (looked up): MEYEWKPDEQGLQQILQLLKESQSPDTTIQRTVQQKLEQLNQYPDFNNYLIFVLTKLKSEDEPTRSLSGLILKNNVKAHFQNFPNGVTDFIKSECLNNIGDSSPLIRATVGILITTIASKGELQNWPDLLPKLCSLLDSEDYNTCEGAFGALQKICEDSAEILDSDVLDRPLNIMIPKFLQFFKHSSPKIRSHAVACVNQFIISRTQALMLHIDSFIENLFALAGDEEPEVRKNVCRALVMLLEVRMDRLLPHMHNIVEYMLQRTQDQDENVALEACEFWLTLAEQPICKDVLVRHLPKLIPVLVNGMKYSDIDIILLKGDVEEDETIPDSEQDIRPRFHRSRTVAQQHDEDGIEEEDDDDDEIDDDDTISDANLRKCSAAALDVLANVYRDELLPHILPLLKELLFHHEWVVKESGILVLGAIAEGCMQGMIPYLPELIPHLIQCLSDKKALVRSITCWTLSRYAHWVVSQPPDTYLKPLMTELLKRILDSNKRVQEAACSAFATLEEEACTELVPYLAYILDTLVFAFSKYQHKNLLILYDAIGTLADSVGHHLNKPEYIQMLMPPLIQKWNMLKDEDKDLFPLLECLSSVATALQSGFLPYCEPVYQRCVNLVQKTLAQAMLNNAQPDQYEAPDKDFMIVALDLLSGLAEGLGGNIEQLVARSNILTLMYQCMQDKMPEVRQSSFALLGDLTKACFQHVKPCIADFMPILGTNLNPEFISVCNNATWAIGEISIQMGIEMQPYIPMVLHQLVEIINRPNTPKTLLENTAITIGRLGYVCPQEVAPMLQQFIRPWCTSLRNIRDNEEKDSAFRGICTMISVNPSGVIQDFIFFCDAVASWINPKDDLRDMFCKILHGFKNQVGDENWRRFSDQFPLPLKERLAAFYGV

[1] = target: Karyopherin-β2 (full length, GST tag removed) (UniProt Q92973); experiment: ITC
[2] = target: T2, Karyopherin-β2 (full length, GST tag removed) (UniProt Q92973-2 1-890); experiment: ITC
T2 sequence (looked up): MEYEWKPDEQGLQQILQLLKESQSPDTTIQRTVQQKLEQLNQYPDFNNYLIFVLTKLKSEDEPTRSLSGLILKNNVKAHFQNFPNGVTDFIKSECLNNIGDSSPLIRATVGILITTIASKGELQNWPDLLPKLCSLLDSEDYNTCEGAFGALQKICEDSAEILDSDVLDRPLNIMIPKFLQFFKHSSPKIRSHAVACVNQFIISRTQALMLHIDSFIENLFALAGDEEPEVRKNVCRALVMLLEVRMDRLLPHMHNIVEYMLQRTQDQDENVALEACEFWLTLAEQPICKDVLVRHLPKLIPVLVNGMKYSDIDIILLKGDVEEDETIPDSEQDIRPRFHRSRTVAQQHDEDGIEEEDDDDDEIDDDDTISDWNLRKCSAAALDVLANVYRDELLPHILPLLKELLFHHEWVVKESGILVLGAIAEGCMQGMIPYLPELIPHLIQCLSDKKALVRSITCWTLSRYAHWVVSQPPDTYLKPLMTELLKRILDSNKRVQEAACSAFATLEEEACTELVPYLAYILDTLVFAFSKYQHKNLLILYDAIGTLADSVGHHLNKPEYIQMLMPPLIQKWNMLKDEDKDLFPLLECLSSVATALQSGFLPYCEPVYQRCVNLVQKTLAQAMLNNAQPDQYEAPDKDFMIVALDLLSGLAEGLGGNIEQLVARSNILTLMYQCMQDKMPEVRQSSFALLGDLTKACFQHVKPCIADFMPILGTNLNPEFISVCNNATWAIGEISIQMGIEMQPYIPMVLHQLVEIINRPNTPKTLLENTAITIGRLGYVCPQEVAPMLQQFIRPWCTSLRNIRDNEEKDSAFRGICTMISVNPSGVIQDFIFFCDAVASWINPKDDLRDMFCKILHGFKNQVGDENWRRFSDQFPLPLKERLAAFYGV

[3] = target: T2, Karyopherin-β2 (full length, GST tag …); experiment: SEC

HNRNPM PY-NLS (domain or fragment)
Kd (Kapβ2(W373A)): 9 nM

MBP-HNRNPH2 R212A (ITC) (from UniProt P55795 103-225) (domain or fragment)
Kd [1]: 3200 nM

B1: MBP-HNRNPH2(103-225) (domain or fragment, UniProt P55795 103-225, looked up)
chain: NSPDTANDGFVRLRGLPFGCSKEEIVQFFSGLEIVPNGMTLPVDFQGRSTGEAFVQFASQEIAEKALKKHKERIGHRYIEIFKSSRAEVRTHYDPPRKLMAMQRPGPYDRPGAGRGYNSIGRG
Kd (Kapβ2(W373A)): 6100 nM
Kd [2]: 50 nM

B2: HNRNPH2(103-225) (as used for SEC and cryo-EM) (domain or fragment, UniProt P55795 103-225, looked up)
chain: NSPDTANDGFVRLRGLPFGCSKEEIVQFFSGLEIVPNGMTLPVDFQGRSTGEAFVQFASQEIAEKALKKHKERIGHRYIEIFKSSRAEVRTHYDPPRKLMAMQRPGPYDRPGAGRGYNSIGRG
modifications: mild crosslinking with 0.025% glutaraldehyde in the cryo-EM sample
binding result [3]: binds

B3: MBP-HNRNPH2(103-225) P209L (domain or fragment, UniProt P55795 103-225, looked up)
chain: NSPDTANDGFVRLRGLPFGCSKEEIVQFFSGLEIVPNGMTLPVDFQGRSTGEAFVQFASQEIAEKALKKHKERIGHRYIEIFKSSRAEVRTHYDPPRKLMAMQRPGLYDRPGAGRGYNSIGRG
fold decrease of affinity against wild type [2]: ~200 fold

B4: MBP-HNRNPH2(190-225) (domain or fragment, UniProt P55795 190-225, looked up)
chain: EVRTHYDPPRKLMAMQRPGPYDRPGAGRGYNSIGRG
Kd [2]: 40 nM
